The chains are these.
B1: CL-510082 (antibody, V domains shown)
VH: QVQLVESGGGVVQPGKSLRLSCVASGFTFSNNGMHWIRQAPGKGLEWVAIIWYDGSNKFYADSVKGRFTISRDNSHNTLYLQMNSLRAEDTAVYYCARDRMFGSGTWNYFDPWGQGTLVTVSS
VL: EIVLTQSPATLSLSPGERATLSCRASQSVSTYLAWYQQKPGQAPRLLIYDASNRATGIPARFSGSGSGTDFTLTISSLEPEDFAVYYCQQRSYWWTFGQGTKVEIK
modifications: peptides N-terminally acetylated and C-terminally amidated
B2: CL-445457 (antibody, V domains shown)
VH: QVQLVESGGAVVQPGTSLRLSCAASGFTFSNYGIHWVRQAPGKGLQWVALIWYNGNNKFYADSVQGRFTISRDNSKNILYLQINSLSAEDTAVYYCARAFYSDSGNYMDYWGQGALVTVSS
VL: DIQMTQSPSSVSASVGDRVTITCRARQDISSRLAWYQQKPGKAPKILIYGASSLQSGVPSRFSASGSGTDFTLTISSLQPEDVASYFCQQANSFPWTFGQGTKVEIK
modifications: peptides N-terminally acetylated and C-terminally amidated
B3: CL-531286 (antibody, V domains shown)
VH: QVQLVESGGGLVQPGRSLRLSCAASGFTFSSSGMHWVRQAPGKGLEWVAVIWYDGSNKFYADSVKGRFTISRDNSKNTLYLQMNSLRAEDTAVYYCARSGYDILTGYFNFFDPWGQGTLVTVSS
VL: EIVLTQSPGTLSLSPGERATLSCRASQSVSSSHLAWYQQKPGQAPRLLIYGASSRATGIPDRFSGSGSGTDFTLTISRLEPEDFAVYYCHQYVSSFTFGPGTKVDFK
modifications: peptides N-terminally acetylated and C-terminally amidated
B4: CL-444387 (antibody, V domains shown)
VH: QVHLVESGGGVVQPGRSLRLSCVASGFSFSSYGMHWVRQAPGKGLEWVAIIWYDGSYTYYADSVKGRFTISRDNSKNTLYLQMNSLRVEDTAVYYCAKVGLSYNGRTGAFDIWGQGTMVTVSS
VL: not shown
modifications: peptides N-terminally acetylated and C-terminally amidated
B5: CL-447703 (antibody, V domains shown)
VH: QVQLVESGGGVVQPGRSLRLSCEASGFTFSDHGMHWVRQGPGKGLEWVSIIWYDGSNKYYADSVKGRFTISRDNSKNTLYLEMNRLRAEDTALYYCARVWNHDDYKYSMDVWGQGTTVTVSS
VL: not shown
modifications: peptides N-terminally acetylated and C-terminally amidated
B6: CL-449759 (antibody, V domains shown)
VH: QVHLVESGGGVVQPGESQRLSCAASGFTFSNYGMHWVRQAPGKGLEWVALIWYDGSNKFYADSVKGRFTISRDNSKNTLYLHMNSLRAEDTAMYYCAKVPNWNDDKYTMDVWGQGTTVTVTS
VL: not shown
modifications: peptides N-terminally acetylated and C-terminally amidated
B7: CL-509293 (antibody, V domains shown)
VH: QVQLVASGGGVVQPGRSLRLTCAASGFTFSNYGMHWVRQSPGRGLEWVAIIWYDGSNKFYADSVKGRFTISRDNSKNTLYLQMNSLRAEDTAVYYCAKAEQRTNDNYYKYGMDVWGQGTTVTVST
VL: not shown
modifications: peptides N-terminally acetylated and C-terminally amidated
B8: CL-513691 (antibody, V domains shown)
VH: QVQLVESGGDVVQTGRSLRLSCAASGFTFSNYGMHWVRQAPDKGLEWVAIIWYDGSNKFYADSVKGRFTISRDNSKNTLYLHIHSLRAEDTAVYYCARDDRGDSAGPYFVYWGQGTLVTVSS
VL: EIVMTQSPATLSVSPGERATLSCRASQSVSDNLAWYQQRPGQAPRLLIYGASIRATGIPARFGGSGSGTEFTLTISILQSADFAVYYCQQHDSWPWTFGQGTKVEIK
modifications: peptides N-terminally acetylated and C-terminally amidated
B9: CL-512459 (antibody, V domains shown)
VH: QVQLVESGGGVVQPGRSLRLSCTASGFTFSDYGMHWVRQAPGKGLEWVSIIWYDGSKKYYADSVQGRFTISRDNSKNTLYLQMSSLRAEDTAVYYCARAYGSGSYYTFNYWGQGTLVTVSS
VL: EIVMTQSPATLSVSPGERATLSCRASQSVNSNLAWYQQKPGQAPRLLIYGASTRATGFPARFIGSGSGTDFTLTINSLQSEDFAVYYCQQYNHWWTFGQGTKVEIK
modifications: peptides N-terminally acetylated and C-terminally amidated
B10: CL-453181 (antibody, V domains shown)
VH: QVQLVESGGGVVQPGRSLRLSCAASGFTFSYYGMHWVRQAPGKGLEWVSIIWYDGSNKFYADSVKGRFTISRDNSKDTLYLEMNSLRAEDTAVYYCARVEFYNGSGRDFYYGLDVWGQGTTVTVSS
VL: EIVMTQSPATLSVSPGEGATLSCRASQSVSSNLAWYQQKPGQAPRLLISGASTRATGVPARFSGSGSGTEFALTISSLQSEDFAVYYCQQYSKLWTFGQGTKVEIK
modifications: peptides N-terminally acetylated and C-terminally amidated
B11: CL-510433 (antibody, V domains shown)
VH: QVQLVESGGGVVQPGRSLRLSCVASGFTFSSYGMHWVRQAPGKGLEWVAVIWYDGSNKYYADSVKGRFTVSRDNSKNTLYLQMNSLRAEDTAVYYCARVYYYGSGSYSPYYYALDVWGHGTTVTVSS
VL: EIVMTQSPATLSVSPGERATLSCRASQSISSNLAWYQQKPGQAPRLLIYGASIRATGIPARFSGSGSGTEFTLSISILQSEDFAIYYCQQYNNWWTFGQGTKVEIK
modifications: peptides N-terminally acetylated and C-terminally amidated
B12: CL-458015 (antibody, V domains shown)
VH: QVHLVESGGGVVQPGRSLRLSCAASGFTFSNYGMHWVRQAPGKGLDWVAIIWYDGSNKFYADSVQGRFTISRDNSKNTLYLQMNSLRAEDTAVYYCAKVQDLLGVPSTLGDHYTTDVWGQGTSVTVSS
VL: DIQMTQSPSTLSASVGDRITITCRASQSINDWLAWYQQKAGKAPKLLIYKASSLESGVPSRFSGSGSGTDFTLTISSLQTDDFAIYYCQQYNHYWTFGQGTKVEIK
modifications: peptides N-terminally acetylated and C-terminally amidated
B13: CL-511862 (antibody, V domains shown)
VH: QVQLVESGGGVVQPGKSLRLSCAASGFSFSSSGMHWVRQAPDKGLEWVAIIWYDGSHKFYADSVKGRFTISRDNSDNTLFLQMDSLRAEDTAVYYCVRAYPTSYNGNYDKYGMDVWGQGTTVTVSS
VL: DIQMTQSPSTLSASVGDRVTIACRASQSISTWLAWYQQKPGKAPKLLIYKASTLESGVPSRFSGSGSGTEFTLTISSLQPDDFATYYCQQFTFYWTFGQGTKVEIK
modifications: peptides N-terminally acetylated and C-terminally amidated
B14: CL-508758 (antibody, V domains shown)
VH: QVQLVESGGGVVQPGRSLRLSCAASGFTFSNYGMHWVRQTPGRDLEWVAIIWYDGSYKFYADSVKGRFSISRDNSKNTLNLEMKSLRVEDTAVYYCAKAYDTSSDDKYGMDVWGQGTTVTVTS
VL: DIQMTQSPSTLSASVGDRVTITCRASQSISIWLAWYQQKPGKAPKLLIYRASDLESGVPSRFSGSGSGTGFTLTISSLQPDDFATYYCQQYNSYWTFGQGTKVEIK
modifications: peptides N-terminally acetylated and C-terminally amidated
B15: CL-459075 (antibody, V domains shown)
VH: QVQLVASGGGVVQPGRSLRLSCAASGFTFSNYGMHWVRQAPGKGLEWVSIIWYDGSKKYYSDSVKGRFTISRDNSKNTLYLQMNSLRAEDTAVYYCARAYGSGSYSDDYYGMDVWGQGTTVTVSS
VL: DIQMTQSPSTLSASVGDRVTITCRASQSISTWLAWCQQKPGKAPKLLIYKASNLESGVPSRFSGSGSGTEFTLTISSLQPDDFATYYCQQYYSYWTFGQGTKVEIK
modifications: peptides N-terminally acetylated and C-terminally amidated
B16: CL-512319 (antibody, V domains shown)
VH: QVQLVESGGGVVQPGRSLRLSCAASGFTFSNFGMHWVRQAPGKGLEWVAVIWYDGSHKFYADSLKGRFTISRDNSKNTLYLQMNNLRAEDTAVYYCARAHPVTTDYDKYGMDVWGQGTTVTVSS
VL: DIQMTQSPSTLSSSVGDRVTITCRASQSISIWLAWIQQKPGKAPKLLIYKASSLESGVPSRFSGSGSGTEFTLTISSLQPDDFATYYCQQFYSYWTFGLGTKVEIK
modifications: peptides N-terminally acetylated and C-terminally amidated
B17: CL-447563 (antibody, V domains shown)
VH: QVQLVASGGGVVQPGRSLRLSCAASGFTFSNYGMHWVRQAPGKGLEWVAIIWYDGSKKYYSDSVKGRFTISRDNSKNTLYLQMNSLRAEDTAVYYCARAYGSGSYSDDYYGMDVWGQGTTVTVSS
VL: DIQMTQSPSTLSASVGDRVTITCRASQSISTWLAWYQQKPGKAPKLLIYKASNLESGVPSRFSGSGSGTEFTLTISSLQPDDFATYYCQQYYSYWTFGQGTKVEIK
modifications: peptides N-terminally acetylated and C-terminally amidated
B18: CL-512374 (antibody, V domains shown)
VH: QVQLVESGGGVVQPGRSLRLSCAASGFTFSSYGMHWVRQAPGKGLEWVAVIWYDGSNKYYADSVKGRFTISRDNSKNTLYLQMNSLRAEDTAVYYCARDGGGTTRSFDLWGRGTLVTVSS
VL: QSVLTQPPSVSGAPGQRVTISCTGSSSNIGAGYDVHWYQQLPGTAPKLLIYGNSNRPSGVPDRFSGSKSGTSASLAITGLQAEDEADYYCQSYDSSLSGSMFGGGTKLTVL
modifications: peptides N-terminally acetylated and C-terminally amidated
B19: CL-437492 (antibody, V domains shown)
VH: QEQLVESGGGVVQPGNSLRLSCVASGFTFSNHGMHWVRQAPGKGLEWVAIIWYDGSQKFYSDSVKGRFTISRDNSKNTLYLQMNSLRAEDTAIYYCARVDWSGNDWGWFDPWGQGTLVTVSS
VL: EIVLTQSPDTLSLSPGERATLSCRASQTLSSRHLAWYQQKPGQAPRLLIYGASSRATGIPDRFSGSGSGTDFTLTINRLEPEDFAVFYCQQYGRLWTFGQGTKVEIK
modifications: peptides N-terminally acetylated and C-terminally amidated
B20: CL-512508 (antibody, V domains shown)
VH: QVQLVESGGGVVQPGTSLRLSCGASGFTFSSYGMHWVRQAPGKGLEWVAIIWYDGNNKYYADSVKGRFTISRDNSKNTLYLQMNSLRAEDTAVYYCAKVGQFSTSSWGAFDIWGQGTMVTVSS
VL: EIVLTQSPGTLPLSPGERATLSCRASQSVSSSQLAWYQQKPGQAPRLLIYGASSRATAIPDRFSGSGSGTDFTLTISRLEPEDFAVYYCQQYSRLWTFGQGTKVEIK
modifications: peptides N-terminally acetylated and C-terminally amidated
B21: CL-531271 (antibody, V domains shown)
VH: QVQLVESGGGEVQPGRSLRLSCAASGFTFSNYGMHWVRQAPGKGLEWVALIWYDGNNKFYADSVNGRFTISRDNSNNTLYLQMNSLRAEDTGVYYCARSFYYVSGNFFDYWGQGTLVTVSS
VL: DIPMTQSPSSVSASVGDRVTITCRASQGISTWLAWYQQKPGKAPKFLIYAASSLQSGVPSRFSGSGSGTDFTLTIYSLQPEDFATYYCQQGNSFPWTFGQGTKVEIK
modifications: peptides N-terminally acetylated and C-terminally amidated
B22: CL-444592 (antibody, V domains shown)
VH: QVQLVESGGGVVQPGRSLRLSCAASGFTFSSYGMHWVRQAPGKGLEWVAVIWYDGSNKYYADSVKGRFTISRDNSKNTLYLQMNSLRAEDTAVYYCARDGNWNYNYYYGMDVWGQGTTVTVSS
VL: DIQLTQSPSFLSASVGDRVTITCWASQGISSYLAWYQQKPGKAPKLLIYAASTLQSGVPSRFSGSGSGTEFTLTISSLQPEDFATYYCQQLNSYPPTFGQGTRLEIK
modifications: peptides N-terminally acetylated and C-terminally amidated

PfCSP full length, sequence (P19597 20-375): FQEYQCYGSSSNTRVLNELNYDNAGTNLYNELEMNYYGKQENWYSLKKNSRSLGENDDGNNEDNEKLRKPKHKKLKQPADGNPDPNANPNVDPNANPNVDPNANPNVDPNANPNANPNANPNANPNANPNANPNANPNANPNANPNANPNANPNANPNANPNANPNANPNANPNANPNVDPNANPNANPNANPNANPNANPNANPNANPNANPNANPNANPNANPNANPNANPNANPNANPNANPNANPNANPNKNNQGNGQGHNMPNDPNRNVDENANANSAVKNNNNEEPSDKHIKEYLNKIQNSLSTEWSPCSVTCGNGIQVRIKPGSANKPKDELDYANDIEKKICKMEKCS

The assay concerns the target PfCSP full length (Plasmodium falciparum (isolate NF54), UniProt P19597). Description: ELISA AUC.
Molecule B1 had a binding score of 2.38.

As to B2, the binding score is 2.

In turn, B3 showed a binding score of 2.29.

Turning to B4, the binding score worked out at 2.3.

B5 returned a binding score of 2.5.

Regarding B6, the binding score stood at 2.4.

In the case of B7, the binding score was found to be 2.12.

Regarding B8, the binding score worked out at 2.36.

Molecule B9 gave a binding score of 2.08.

In the case of B10, the binding score was found to be 2.6.

As to B11, the binding score stood at 1.76.

Regarding B12, the binding score was 2.2.

Turning to B13, the binding score was found to be 2.53.

B14 yielded a binding score of 2.17.

B15: the binding score is 2.5.

The molecule B16 yielded a binding score of 2.08.

For the molecule B17, the binding score came to 2.5.

Take B18: the binding score is 1.17.

The molecule B19 yielded a binding score of 2.2.

The molecule B20 displayed a binding score of 2.01.

Consider B21, for which the binding score turned out to be 2.36.

In the case of B22, the binding score was 1.5.

These data come from PMC10720262 (2023).
